In paper PMC4993509 (PLoS ONE, 2016):

Biological target: the molecule itself
Experiment: SEC-MALS; Superdex 200 HR 10/30 coupled to three-angle light scattering (mini-DAWN EOS) and refractive index detector, flow 0.2 ml/min

B1: C-terminal histidine-tagged SYCP1 CC (coiled-coil domain of human synaptonemal complex protein 1, residues 662-801) (domain or fragment, UniProt Q15431 662-801, looked up)
chain: DTYQKEIEDKKISEENLLEEVEKAKVIADEAVKLQKEIDKRCQHKIAEMVALMEKHKHQYDKIIEERDSELGLYKSKEQEQSSLRASLEIELSNLKAELLSVKKQLEIEREEKEKLKREAKENTATLKEKKDKKTQTFLL
notes: synaptonemal complex protein 1 (SYCP1), human, coiled-coil domain region, residues 662 (D)-801 (L); A selenomethionine-substituted form was also made and crystallised; the final model holds residues 673-767 (chain A) and 673-769 (chain B); also called SYCP CC; wildtype; source: E. coli BL21 (pET24a), purified (Ni-NTA, Superdex 200 gel filtration); not shown: His tag, C-terminal, kept
In the case of B1, the “stoichiometry N” value is reported as 2.
